Data published in the supplement of paper PMC9112550, “Optimization of the antimicrobial peptide Bac7 by deep mutational scanning” (BMC Biology, 2022).

Test system: Escherichia coli TOP10
Assay: shrunken log2 fold change of peptide-encoding DNA abundance (4.5 h post-induction vs induction); higher = less antimicrobial activity (less host growth inhibition)
Settings: time post-induction: 4.5 h; library: site-saturation at positions 5, 18, 19, 20
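Note: peptides expressed intracellularly from a pBAD plasmid library in pooled LB shake-flask culture, induced with 0.3% L-arabinose, DNA abundance read by NGS, three biological replicates, DESeq2 with apeglm shrinkage.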

| Sequence | shrunken log2 fold change |
| --- | --- |
| RRIRERPPRLPRPRPRPEIEPRP | 0.0286 |
| RRIRERPPRLPRPRPRPELLPRP | -0.000642 |
| RRIRERPPRLPRPRPRPEMPPRP | 0.112 |
| RRIRERPPRLPRPRPRPENGPRP | -0.025 |
| RRIRERPPRLPRPRPRPENQPRP | -0.174 |
| RRIRERPPRLPRPRPRPEPDPRP | 0.0002 |
| RRIRERPPRLPRPRPRPEPFPRP | -0.0469 |
| RRIRERPPRLPRPRPRPEPYPRP | -0.0697 |
| RRIRERPPRLPRPRPRPEQAPRP | 0.143 |
| RRIRERPPRLPRPRPRPEQFPRP | -0.0286 |
| RRIRERPPRLPRPRPRPEQSPRP | -0.0108 |
| RRIRERPPRLPRPRPRPERKPRP | 0.0538 |
| RRIRERPPRLPRPRPRPERQPRP | -0.0184 |
| RRIRERPPRLPRPRPRPETIPRP | -0.0222 |
| RRIRERPPRLPRPRPRPETYPRP | -0.152 |
| RRIRERPPRLPRPRPRPEVKPRP | -0.0524 |
| RRIRERPPRLPRPRPRPFASPRP | 0.00624 |
| RRIRERPPRLPRPRPRPFCGPRP | -0.058 |
| RRIRERPPRLPRPRPRPFCHPRP | -0.0629 |
| RRIRERPPRLPRPRPRPFDPPRP | 0.0149 |
| RRIRERPPRLPRPRPRPFDSPRP | -1.81 |
| RRIRERPPRLPRPRPRPFEIPRP | -0.203 |
| RRIRERPPRLPRPRPRPFEMPRP | -0.536 |
| RRIRERPPRLPRPRPRPFFHPRP | -0.264 |
| RRIRERPPRLPRPRPRPFFWPRP | 0.138 |

| Sequence | shrunken log2 fold change |
| --- | --- |
| RRIRERPPRLPRPRPRPFGCPRP | -0.0136 |
| RRIRERPPRLPRPRPRPFGDPRP | -0.0107 |
| RRIRERPPRLPRPRPRPFMAPRP | -0.891 |
| RRIRERPPRLPRPRPRPFNCPRP | 0.0173 |
| RRIRERPPRLPRPRPRPFRHPRP | 0.0628 |
| RRIRERPPRLPRPRPRPFTIPRP | -0.162 |
| RRIRERPPRLPRPRPRPFVDPRP | -0.0208 |
| RRIRERPPRLPRPRPRPFWRPRP | 0.0935 |
| RRIRERPPRLPRPRPRPFWSPRP | -0.109 |
| RRIRERPPRLPRPRPRPGACPRP | 0.0171 |
| RRIRERPPRLPRPRPRPGADPRP | 0.146 |
| RRIRERPPRLPRPRPRPGAFPRP | -0.0461 |
| RRIRERPPRLPRPRPRPGAKPRP | 0.188 |
| RRIRERPPRLPRPRPRPGCCPRP | 0.131 |
| RRIRERPPRLPRPRPRPGDYPRP | -0.0324 |
| RRIRERPPRLPRPRPRPGFQPRP | -0.104 |
| RRIRERPPRLPRPRPRPGGLPRP | -0.00977 |
| RRIRERPPRLPRPRPRPGGQPRP | 0.171 |
| RRIRERPPRLPRPRPRPGGYPRP | -0.563 |
| RRIRERPPRLPRPRPRPGICPRP | -0.0398 |
| RRIRERPPRLPRPRPRPGIRPRP | -0.0819 |
| RRIRERPPRLPRPRPRPGIVPRP | -0.113 |
| RRIRERPPRLPRPRPRPGKSPRP | -0.00212 |
| RRIRERPPRLPRPRPRPGLQPRP | 0.103 |
| RRIRERPPRLPRPRPRPGLVPRP | -0.061 |

| Sequence | shrunken log2 fold change |
| --- | --- |
| RRIRERPPRLPRPRPRPGMPPRP | -0.0315 |
| RRIRERPPRLPRPRPRPGPAPRP | 0.439 |
| RRIRERPPRLPRPRPRPGPFPRP | -0.128 |
| RRIRERPPRLPRPRPRPGPHPRP | 0.00422 |
| RRIRERPPRLPRPRPRPGPIPRP | 0.0264 |
| RRIRERPPRLPRPRPRPGQFPRP | -0.295 |
| RRIRERPPRLPRPRPRPGRDPRP | 0.419 |
| RRIRERPPRLPRPRPRPGRIPRP | -0.0858 |
| RRIRERPPRLPRPRPRPGRVPRP | 0.195 |
| RRIRERPPRLPRPRPRPGTWPRP | -0.0304 |
| RRIRERPPRLPRPRPRPGVHPRP | -0.139 |
| RRIRERPPRLPRPRPRPGWPPRP | 0.398 |
| RRIRERPPRLPRPRPRPGWSPRP | 0.135 |
| RRIRERPPRLPRPRPRPGWTPRP | 0.0709 |
| RRIRERPPRLPRPRPRPGYCPRP | -0.432 |
| RRIRERPPRLPRPRPRPGYGPRP | -0.165 |
| RRIRERPPRLPRPRPRPGYIPRP | -0.709 |
| RRIRERPPRLPRPRPRPGYWPRP | -0.0572 |
| RRIRERPPRLPRPRPRPHAMPRP | 0.0454 |
| RRIRERPPRLPRPRPRPHARPRP | 0.198 |
| RRIRERPPRLPRPRPRPHATPRP | 0.238 |
| RRIRERPPRLPRPRPRPHCEPRP | -0.056 |
| RRIRERPPRLPRPRPRPHCFPRP | 0.0259 |
| RRIRERPPRLPRPRPRPHCHPRP | -0.657 |
| RRIRERPPRLPRPRPRPHDEPRP | 0.00178 |
